# T1: GrsA (Aneurinibacillus migulanus, UniProt P0C061)
# T1 sequence (P0C061 1-428 limits assumed): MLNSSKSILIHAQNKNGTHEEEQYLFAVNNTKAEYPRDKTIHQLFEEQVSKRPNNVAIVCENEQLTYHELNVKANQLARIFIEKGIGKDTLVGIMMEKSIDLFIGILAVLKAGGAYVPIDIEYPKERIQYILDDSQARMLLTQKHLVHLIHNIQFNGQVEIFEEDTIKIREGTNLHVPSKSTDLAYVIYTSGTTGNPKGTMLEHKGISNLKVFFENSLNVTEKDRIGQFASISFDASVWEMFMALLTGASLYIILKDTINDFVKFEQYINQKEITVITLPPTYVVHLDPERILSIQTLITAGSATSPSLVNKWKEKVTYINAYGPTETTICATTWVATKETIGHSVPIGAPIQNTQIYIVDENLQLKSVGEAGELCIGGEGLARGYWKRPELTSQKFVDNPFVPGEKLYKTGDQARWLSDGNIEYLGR
# B1: GrsA (Aneurinibacillus migulanus) (protein)
# chain: MLNSSKSILIHAQNKNGTHEEEQYLFAVNNTKAEYPRDKTIHQLFEEQVSKRPNNVAIVCENEQLTYHELNVKANQLARIFIEKGIGKDTLVGIMMEKSIDLFIGILAVLKAGGAYVPIDIEYPKERIQYILDDSQARMLLTQKHLVHLIHNIQFNGQVEIFEEDTIKIREGTNLHVPSKSTDLAYVIYTSGTTGNPKGTMLEHKGISNLKVFFENSLNVTEKDRIGQFASISFDASVWEMFMALLTGASLYIILKDTINDFVKFEQYINQKEITVITLPPTYVVHLDPERILSIQTLITAGSATSPSLVNKWKEKVTYINAYGPTETTICATTWVATKETIGHSVPIGAPIQNTQIYIVDENLQLKSVGEAGELCIGGEGLARGYWKRPELTSQKFVDNPFVPGEKLYKTGDQARWLSDGNIEYLGRIDNQVKIRGHRVELEEVESILLKHMYISETAVSVHKDHQEQPYLCAYFVSEKHIPLEQLRQFSSEELPTYMIPSYFIQLDKMPLTSNGKIDRKQLPEPDLTFGMRVDYEAPRNEIEETLVTIWQDVLGIEKIGIKDNFYALGGDSIKAIQVAARLHSYQLKLETKDLLKYPTIDQLVHYIKDSKRRSEQGIVEGEIGLTPIQHWFFEQQFTNMHHWNQSYMLYRPNGFDKEILLRVFNKIVEHHDALRMIYKHHNGKIVQINRGLEGTLFDFYTFDLTANDNEQQVICEESARLQNSINLEVGPLVKIALFHTQNGDHLFMAIHHLVVDGISWRILFEDLATAYEQAMHQQTIALPEKTDSFKDWSIELEKYANSELFLEEAEYWHHLNYYTENVQIKKDYVTMNNKQKNIRYVGMELTIEETEKLLKNVNKAYRTEINDILLTALGFALKEWADIDKIVINLEGHGREEILEQMNIARTVGWFTSQYPVVLDMQKSDDLSYQIKLMKENLRRIPNKGIGYEIFKYLTTEYLRPVLPFTLKPEINFNYLGQFDTDVKTELFTRSPYSMGNSLGPDGKNNLSPEGESYFVLNINGFIEEGKLHITFSYNEQQYKEDTIQQLSRSYKQHLLAIIEHCVQKEDTELTPSDFSFKELELEEMDDIFDLLADSLT
# B2: SrfA-B1 (Bacillus subtilis subsp. subtilis str. 168) (protein)
# chain: ASTAVVYEGTKLTYRELNAAANRLARKLVEHGLQKGETAAIMNDRSVETVVGMLAVLKAGAAYVPLDPALPGDRLRFMAEDSSVRMVLIGNSYTGQAHQLQVPVLTLDIGFEESEAADNLNLPSAPSDLAYIMYTSGSTGKPKGVMIEHKSILRLVKNAGYVPVTEEDRMAQTGAVSFDAGTFEVFGALLNGAALYPVKKETLLDAKQFAAFLREQSITTMWLTSPLFNQLAAKDAGMFGTLRHLIIGGDALVPHIVSKVKQASPSLSLWNGYGPTENTTFSTSFLIDREYGGSIPIGKPIGNSTAYIMDEQQCLQPIGAPGELCVGGIGVARGYVNLPELTEKQFLEDPFRPGERIYRTGDLARWLPDGNIEFLGRIDNQVKVRGFRIELGEIETKLNMAEHVTEAAVIIRKNKADENEICAYFTADREVAVSELRKTLSQSLPDYMVPAHLIQMDSLPLTPNGKINKKELPAPQSEAVQ
# Assays:
# GrsA = biological target: T1, GrsA; test: isothermal titration calorimetry; assay type: binding
# NC(Cc1cccc(F)c1)C(=O)O = test: adenylation saturation kinetics; assay type: biochemical, Aneurinibacillus migulanus; conditions: ATP A-domain binding pocket enlarged by W239S
# NC(Cc1ccccc1F)C(=O)O = test: adenylation saturation kinetics; assay type: biochemical, Aneurinibacillus migulanus; conditions: ATP A-domain binding pocket enlarged by W239S
# [1] = substrate: NC(Cc1cc(F)cc(F)c1)C(=O)O; test: adenylation saturation kinetics; assay type: biochemical, Aneurinibacillus migulanus; conditions: ATP A-domain binding pocket; T-shaped aromatic interaction with Trp239
# [2] = substrate: NC(Cc1cccc(F)c1)C(=O)O; test: adenylation saturation kinetics; assay type: biochemical, Aneurinibacillus migulanus; conditions: ATP A-domain binding pocket; T-shaped aromatic interaction with Trp239
# [3] = substrate: NC(Cc1ccccc1F)C(=O)O; test: adenylation saturation kinetics; assay type: biochemical, Aneurinibacillus migulanus; conditions: ATP A-domain binding pocket; T-shaped aromatic interaction with Trp239
# [4] = substrate: CC(C)(F)C(N)C(=O)O; test: adenylation saturation kinetics; assay type: biochemical, Bacillus subtilis; conditions: ATP
# [5] = substrate: CC(C)C(N)C(=O)O; test: adenylation saturation kinetics; assay type: biochemical, Bacillus subtilis; conditions: ATP
molecule,measurement,setting,value
NC(Cc1ccccc1)C(=O)O (racemic) [Phe],Kd,GrsA,60 ± 10 µM
GrsA-W239S (Aneurinibacillus migulanus; W239S),Km,NC(Cc1cccc(F)c1)C(=O)O,900 ± 100 µM
same,kcat,NC(Cc1cccc(F)c1)C(=O)O,0.233 ± 0.0167 s⁻¹
same,kcat/Km,NC(Cc1cccc(F)c1)C(=O)O,250 M⁻¹ s⁻¹
same,Km,NC(Cc1ccccc1F)C(=O)O,3000 ± 1000 µM
same,kcat,NC(Cc1ccccc1F)C(=O)O,0.667 ± 0.167 s⁻¹
same,kcat/Km,NC(Cc1ccccc1F)C(=O)O,267 M⁻¹ s⁻¹
B1,Km,[1],14 ± 3 µM
same,kcat,[1],0.517 ± 0.0333 s⁻¹
same,kcat/Km,[1],36700 M⁻¹ s⁻¹
same,Km,[2],14 ± 5 µM
same,kcat,[2],0.35 ± 0.0333 s⁻¹
same,kcat/Km,[2],25000 M⁻¹ s⁻¹
same,Km,[3],20 ± 2 µM
same,kcat,[3],0.458 ± 0.0133 s⁻¹
same,kcat/Km,[3],23300 M⁻¹ s⁻¹
B2,Km,[4],8000 ± 1000 µM
same,kcat,[4],0.467 ± 0.05 s⁻¹
same,kcat/Km,[4],58.3 M⁻¹ s⁻¹
same,Km,[5],60 ± 20 µM
same,kcat,[5],0.133 ± 0.0333 s⁻¹
same,kcat/Km,[5],2330 M⁻¹ s⁻¹

# Source: publication PMC10467612 (RSC Chemical Biology, 2023)
